# Source: patent publication US20040260068A1 (published 2004)
# T1: human E-selectin on CHO-K1 transfectant cells (human, UniProt P16581 22-610)
# T1 construct: whole, on cells; also called CHO-E Selectin; CHO-E selectin
# T1 sequence (looked up): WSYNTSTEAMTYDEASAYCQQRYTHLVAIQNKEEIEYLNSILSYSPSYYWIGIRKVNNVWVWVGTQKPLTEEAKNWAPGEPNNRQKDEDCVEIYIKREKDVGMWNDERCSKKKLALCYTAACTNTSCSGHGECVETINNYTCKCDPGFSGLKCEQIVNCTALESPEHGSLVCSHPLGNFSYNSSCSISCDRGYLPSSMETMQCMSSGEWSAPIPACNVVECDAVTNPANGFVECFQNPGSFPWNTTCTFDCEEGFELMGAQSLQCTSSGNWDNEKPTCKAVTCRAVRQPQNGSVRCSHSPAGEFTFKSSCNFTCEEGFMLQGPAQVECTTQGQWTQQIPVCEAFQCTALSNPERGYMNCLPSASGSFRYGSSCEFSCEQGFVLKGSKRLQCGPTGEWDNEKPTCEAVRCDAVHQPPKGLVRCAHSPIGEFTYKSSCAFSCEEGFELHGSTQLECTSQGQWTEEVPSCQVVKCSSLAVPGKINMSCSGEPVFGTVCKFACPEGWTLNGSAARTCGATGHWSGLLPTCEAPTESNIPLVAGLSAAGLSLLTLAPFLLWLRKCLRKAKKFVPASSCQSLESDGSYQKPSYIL
# T2: human P-selectin on CHO-K1 transfectant cells (human, UniProt P16109 42-830)
# T2 construct: whole, on cells; also called CHO-P selectin
# T2 sequence (looked up): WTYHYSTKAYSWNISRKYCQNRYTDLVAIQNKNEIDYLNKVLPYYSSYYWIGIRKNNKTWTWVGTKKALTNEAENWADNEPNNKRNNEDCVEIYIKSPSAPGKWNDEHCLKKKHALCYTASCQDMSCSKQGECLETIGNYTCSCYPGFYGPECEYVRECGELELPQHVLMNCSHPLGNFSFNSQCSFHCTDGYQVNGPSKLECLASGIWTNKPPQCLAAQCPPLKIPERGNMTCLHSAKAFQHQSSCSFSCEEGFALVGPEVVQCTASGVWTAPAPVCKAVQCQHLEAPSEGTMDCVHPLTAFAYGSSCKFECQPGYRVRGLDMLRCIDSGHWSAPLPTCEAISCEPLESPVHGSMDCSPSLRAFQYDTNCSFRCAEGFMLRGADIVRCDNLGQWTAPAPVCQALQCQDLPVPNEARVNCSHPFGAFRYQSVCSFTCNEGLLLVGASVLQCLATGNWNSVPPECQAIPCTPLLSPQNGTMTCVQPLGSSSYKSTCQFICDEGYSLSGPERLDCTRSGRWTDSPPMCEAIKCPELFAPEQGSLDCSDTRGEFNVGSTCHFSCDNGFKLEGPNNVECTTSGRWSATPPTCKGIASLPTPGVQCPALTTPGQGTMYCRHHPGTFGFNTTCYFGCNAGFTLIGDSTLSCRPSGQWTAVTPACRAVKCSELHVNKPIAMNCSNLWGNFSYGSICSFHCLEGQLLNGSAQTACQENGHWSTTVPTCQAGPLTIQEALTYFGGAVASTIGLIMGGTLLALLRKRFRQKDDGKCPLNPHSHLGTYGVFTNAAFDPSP
# T3: recombinant soluble human L-selectin (human, UniProt P14151 39-332)
# T3 construct: extracellular domain; The residue numbers 1-279 count on the mature protein, not on the precursor
# T3 sequence (looked up): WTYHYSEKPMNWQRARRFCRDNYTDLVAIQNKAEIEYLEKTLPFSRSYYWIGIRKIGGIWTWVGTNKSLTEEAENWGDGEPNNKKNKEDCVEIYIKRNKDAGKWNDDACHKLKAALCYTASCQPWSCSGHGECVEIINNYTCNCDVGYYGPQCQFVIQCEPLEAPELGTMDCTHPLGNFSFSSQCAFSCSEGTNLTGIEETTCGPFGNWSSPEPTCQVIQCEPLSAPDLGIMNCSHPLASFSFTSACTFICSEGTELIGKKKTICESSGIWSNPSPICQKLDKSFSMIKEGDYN
# Tests used:
# [1] = target: T1, human E-selectin on CHO-K1 transfectant …; experiment: flow cytometry on CHO-K1 transfectants
# Experimental: (§1) 2×10⁵ cells were incubated on ice for 30 minutes in FACS buffer (PBS containing 1% bovine serum albumin and 0.2% sodium azide) with 1 μg of test antibody or buffer alone. After incubation, cells were washed three times with FACS buffer and subsequently incubated for another 30 minutes with PE-conjugated donkey anti-human IgG F(ab′)2 fragment (Jackson ImmunoResearch). After washing three times with FACS buffer, relative cell fluorescence was analyzed by flow cytometry using a Cyan (DAKOCytomation).
# [2] = target: T2, human P-selectin on CHO-K1 transfectant …; experiment: flow cytometry on CHO-K1 transfectants
# Experimental: as §1
# [3] = target: T3, recombinant soluble human L-selectin; experiment: competition ELISA on coated soluble human L-selectin; competitor of biotinylated ChD3
# Experimental: ELISA plates were coated with 0.25 μg/ml soluble human L-selectin in 0.2 M sodium carbonate buffer (pH 9.4) and blocked with SuperBlock blocking buffer (Pierce). […] As controls, humanized anti-human L-selectin monoclonal antibody HuDREG55 (Co et al., Immunotechol. 4:253-266 (1999)) and humanized anti-human HLA-DR monoclonal antibody Hu1D10 (Kostelny et al., Int. J. Cancer 93:556-565 (2001)) were used. ELISA plates were incubated at room temperature for 2 hr. After washing the wells with Washing Buffer (PBS containing 0.1% Tween 20), 100 μl of 1 μg/ml HRP-conjugated streptavidin (Pierce) in ELISA buffer was added to each well. ELISA plates were incubated at room temperature for 60 min and washed with Washing Buffer. For color development, 100 μl/well of ABTS substrate was added. Color development was stopped by adding 100 μl/well of 2% oxalic acid. Absorbance was read at 415 nm.
# [4] = target: T2, human P-selectin on CHO-K1 transfectant …; experiment: flow cytometry on CHO-K1 transfectants; panel H read as CHO-P selectin
# Experimental: as §1
IC50 [3] [µg/mL],Binder,binding result [1],binding result [2],binding result [4]
2.9,"humanized anti-L-selectin antibody D3 (antibody, V domains shown, Transiently expressed in 293-H cells; also called HuD3; humanized D3) VH: EVQLLESGGGLVQPGGSLRLSCAASGFSIGSYNMHWVRQAPGKGLEWVAGISGAGSRTAWYGAAVKGRATISRDNAKNTVYLQMNSLRAEDTAVYYCAKDYGGSGSPWYGWGAASWIDAWGQGTLVTVSS VL: SSELTQDPAVSVALGQTVRITCSGGSYYGWYQQKPGQAPVTVIYDNDKRPSDIPSRFSGSKSGSTGSLTITGAQAEDEADYYCGSADSAYVGIFGGGTKLTVL",no binding (tested: 1 µg of test antibody),no binding (tested: 1 µg of test antibody),–
3.4,"chicken-human chimeric anti-L-selectin antibody D3 (antibody, V domains shown, Transiently expressed in 293-H cells; also called ChD3; chimeric D3) VH: AVTLDESGGGLQTPGGALSLVCRASGFSIGSYNMHWVRQAPGKGLEWVAGISGAGSRTAWYGAAVKGRATISRDNGQSTVRLQLNNLRAEDTGTYYCAKDYGGSGSPWYGWGAASWIDAWGHGTEVIVSS VL: ALTQPASVSANPGETVKITCSGGSYYGWYQQKSPGSAPVTVIYDNDKRPSDIPSRFSGSKSGSTGTLTITGVQAEDEAVYFCGSADSAYVGIFGAGTTLTVL",no binding (tested: 1 µg of test antibody),–,no binding (tested: 1 µg of test antibody)
